Data reported in patent US20240218011A1 (FIREFLY BIO, published 2024).

Target: human LPAM1 (human, UniProt P26010 20-798)
Test: cell-based or functional assay

human LPAM1, sequence (P26010 20-798): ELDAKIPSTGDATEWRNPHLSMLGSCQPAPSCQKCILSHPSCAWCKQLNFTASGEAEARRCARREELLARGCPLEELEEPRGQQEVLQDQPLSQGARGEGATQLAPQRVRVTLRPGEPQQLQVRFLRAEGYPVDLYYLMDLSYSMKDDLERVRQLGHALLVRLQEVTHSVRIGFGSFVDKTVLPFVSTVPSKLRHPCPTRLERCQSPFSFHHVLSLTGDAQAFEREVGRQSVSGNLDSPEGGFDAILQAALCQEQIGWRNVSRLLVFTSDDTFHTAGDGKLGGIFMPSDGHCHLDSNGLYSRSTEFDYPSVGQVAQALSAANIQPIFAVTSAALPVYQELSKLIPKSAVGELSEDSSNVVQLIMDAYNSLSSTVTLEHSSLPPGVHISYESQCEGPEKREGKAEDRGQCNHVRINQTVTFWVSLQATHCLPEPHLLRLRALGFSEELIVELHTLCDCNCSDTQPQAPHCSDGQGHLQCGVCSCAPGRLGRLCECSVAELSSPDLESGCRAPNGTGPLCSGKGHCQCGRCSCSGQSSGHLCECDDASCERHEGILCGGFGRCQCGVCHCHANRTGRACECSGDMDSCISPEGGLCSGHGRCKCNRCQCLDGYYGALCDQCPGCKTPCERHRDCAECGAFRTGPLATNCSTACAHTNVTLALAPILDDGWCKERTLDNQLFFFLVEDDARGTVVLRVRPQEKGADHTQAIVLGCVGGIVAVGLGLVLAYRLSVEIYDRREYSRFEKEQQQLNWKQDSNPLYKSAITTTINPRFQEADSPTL

- Fold induction Anti-LPAM1 conjugate at 0.0064 nM; luciferase reporter: 1 fold
- Fold induction Anti-LPAM1 conjugate at 0.032 nM; luciferase reporter: 1 fold
- Fold induction Anti-LPAM1 conjugate at 0.16 nM; luciferase reporter: 20 fold
- Fold induction Anti-LPAM1 conjugate at 0.8 nM; luciferase reporter: 121 fold
- Fold induction Anti-LPAM1 conjugate at 4 nM; luciferase reporter: 147 fold
- Fold induction Anti-LPAM1 conjugate at 20 nM; luciferase reporter: 177 fold
- Fold induction Anti-LPAM1 conjugate at 100 nM; luciferase reporter: 240 fold
- Fold induction Anti-LPAM1 conjugate at 500 nM; luciferase reporter: 361 fold
B1: Anti-LPAM-1-Linker 1-Bud (vedolizumab conjugated to GR agonist budesonide with Linker 1) (antibody, human IgG1, kappa, V domains shown)
VH: QVQLVQSGAEVKKPGASVKVSCKGSGYTFTSYWMHWVRQAPGQRLEWIGEIDPSESNTNYNQKFKGRVTLTVDISASTAYMELSSLRSEDTAVYYCARGGYDGWDYAIDYWGQGTLVTVSS
VL: DVVMTQSPLSLPVTPGEPASISCRSSQSLAKSYGNTYLSWYLQKPGQSPQLLIYGISNRFSGVPDRFSGSGSGTDFTLKISRVEAEDVGVYYCLQGTHQPYTFGQGTKVEIKR
modifications: budesonide attached through Linker 1; residues and chain not stated
